We go through 15 molecules from patent US20200190192A1 (SUTRO BIOPHARMA, published 2020).

Experiment [1] has as its target T1, biotinylated recombinant human PD-1 (AcroBiosystems) (human, UniProt Q15116 25-167, limits assumed, biotinylated (sites not given)).
T1 construct: Bought protein; also called biotinylated PD-1
As to the kind of experiment: competition, flow cytometry: biotin-PD-1 binding to CHO-human PD-L1 cells.

For experiment [2], the target named is T2, human Tim-3 expressed on the cell surface (human, UniProt Q8TDQ0 22-301).
T2 construct: also called hTim-3; Human Tim-3 (CHO)
The experiment in a line: flow cytometry, CHO-human Tim-3 cells. Details: Bmax: unit not given here.

For experiment [3], the target named is T3, human PD-1 expressed on CHO cells (human, UniProt Q15116 25-288).
T3 construct: also called hPD-1; CHO-hPD-1
The experiment in a line: flow cytometry, CHO-human PD-1 cells. Details: Bmax: unit not given here. (In general: Flow cytometry measures light scatter and fluorescence of single cells or particles in a stream.)

The target of experiment [4] is T4, human Tim-3 (Biacore analyte; TIM-3-Fc or TIM-3-HIS, not said which) (human, UniProt Q8TDQ0 22-202).
T4 construct: also called TIM-3 antigen; not shown: Fc or HIS tag
The experiment in a line: SPR Biacore, human Tim-3 (Fc or HIS not said). On the technique in general: SPR reads the build-up and loss of mass on a sensor chip optically.

For experiment [5], the target named is T2, human Tim-3 expressed on the cell …. The experiment in a line: flow cytometry, CHO-human Tim-3 cells.
The target of experiment [6] is T5, cynomolgus Tim-3 expressed on CHO cells (cynomolgus monkey).
T5 construct: also called cTim-3; Cyno Tim-3 (CHO)
T5 chain: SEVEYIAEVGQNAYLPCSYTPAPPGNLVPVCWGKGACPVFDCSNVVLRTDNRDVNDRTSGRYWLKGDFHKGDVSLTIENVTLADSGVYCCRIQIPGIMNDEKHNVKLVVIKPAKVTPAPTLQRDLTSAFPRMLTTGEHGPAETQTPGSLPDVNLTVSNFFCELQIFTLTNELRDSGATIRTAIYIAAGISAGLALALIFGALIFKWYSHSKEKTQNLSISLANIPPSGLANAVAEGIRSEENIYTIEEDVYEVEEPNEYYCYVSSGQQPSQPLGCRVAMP
As to the kind of experiment: flow cytometry, CHO-cyno Tim-3 cells.

Experiment [7] addresses T2, human Tim-3 expressed on the cell …. The experiment in a line: flow cytometry, activated human CD4+ T cells.
Experiment [8] deals with T6, recombinant human Tim-3-Fc (R&D Systems, 2365-TM) (human, UniProt Q8TDQ0 22-202, biotinylated in the Galectin-9 competition ELISA (sites not given)).
T6 construct: Bought protein; also called huTim-3-Fc; biotinylated Tim-3-Fc; not shown: Fc of the bought fusion protein
As to the kind of experiment: SPR Biacore, human Tim-3 Fc.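 Further: antibodies captured on an anti-FLAG sensor surface, Tim-3-Fc flowed over as analyte at 25 °C in HBS-EP+ buffer, rates fit with a 1:1 Langmuir model.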

Experiment [9] has as its target T5, cynomolgus Tim-3 expressed on CHO cells. The experiment in a line: flow cytometry, CHO-cyno Tim-3 cells.
The target of experiment [10] is T6, recombinant human Tim-3-Fc (R&D …). As to the kind of experiment: SPR Biacore, human Tim-3 Fc; KD estimated.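 Further: antibodies captured on an anti-FLAG sensor surface, Tim-3-Fc flowed over as analyte at 25 °C in HBS-EP+ buffer, rates fit with a 1:1 Langmuir model.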
In experiment [11] the target is T2, human Tim-3 expressed on the cell …. The experiment in a line: flow cytometry, CHO-human Tim-3 cells. This is another data set of the same source.
The target of experiment [12] is T3, human PD-1 expressed on CHO cells. As to the kind of experiment: hPD-1 binding titration (format not named; taken as cell binding).

Like-named read-outs stand apart in the source and are kept apart here.

B1: 1353-G10 scFvFc-zwB × 1649-A01 Hc zwA Y56D/TrstmbLC S56D (bispecific antibody)
scFv: not shown
VH: EVQLVESGGGLVQPGGSLRLSCAASGFNISRYYIHWVRQAPGKGLEWVAGITPVRGDTEYADSVKDRFTISADTSKNTAYLQMNSLRAEDTAVYYCARGYVYRMWDSYDYWGQGTLVTVSS
VL: not shown
notes: Tim-3 heavy chain with zwA CH3 mutations
On to B1, for which the IC50 in [1] is 82 nM. For the same molecule, in [2], the Bmax came to 11200 and the Kd was determined as 4.5 nM. Besides, in experiment [3], the Bmax was 13300 and the Kd came out at 2.3 nM.

B2: SRP1649-B06 (antibody, V domains shown)
VH: EVQLVESGGGLVQPGGSLRLSCAASGFNISNHAIHWVRQAPGKGLEWVADISPAVGYTDYADSVKDRFTISADTSKNTAYLQMNSLRAEDTAVYYCARGYVYRMWDSFDHWGQGTLVTVSS
VL: not shown
notes: IgG with trastuzumab LC; HIS- and FLAG-tagged
B2: in [4], the Kd came out at 66.9 nM, the koff was 0.0126 s⁻¹ and the kon is 189000 M⁻¹ s⁻¹. For the same molecule, in experiment [5], the affinity, expressed as Kd, was 0.2 nM. The molecule further came in with a Kd in [6] of 1.9 nM.

B3: SRP1649-H02 (antibody, V domains shown)
VH: EVQLVESGGGLVQPGGSLRLSCAASGFNIRSYAIHWVRQAPGKGLEWVADITPAGGDTEYADSVKGRFTISADTSKNTAYLQMNSLRAEDTAVYYCARGYIYRMWDSYDYWGQGTLVTVSS
VL: not shown
notes: as for B2
B3: in experiment [4], the equilibrium dissociation constant (Kd) turned out to be 23.9 nM, the koff amounted to 0.00374 s⁻¹ and the kon turned out to be 157000 M⁻¹ s⁻¹. The same molecule had a Kd in [5] of 0.2 nM. This molecule also displayed a Kd in experiment [6] of 2.2 nM.

B4: SRP1649-B09 (antibody, V domains shown)
VH: EVQLVESGGGLVQPGGSLRLSCAASGFNIRNNAIHWVRQAPGKGLEWVADITPAGGYTGYADSVKDRFTISADTSKNTAYLQMNSLRAEDTAVYYCARGYIYRMWDSLDYWGQGTLVTVSS
VL: not shown
notes: as for B2
With B4, the Kd in experiment [4] was 18.8 nM; in [5], 0.2 nM; in [6] it was 9.4 nM. In experiment [4], the koff was determined as 0.00249 s⁻¹. Moreover, the kon in experiment [4] was 133000 M⁻¹ s⁻¹.

B5: SRP1649-C05 (antibody, V domains shown)
VH: EVQLVESGGGLVQPGGSLRLSCAASGFNIGKHVIHWVRQAPGKGLEWVADIVPNGGYTEYADSVKDRFTISADTSKNTAYLQMNSLRAEDTAVYYCARGYVYRMWDSFDYWGQGTLVTVSS
VL: not shown
notes: as for B2
In experiment [4], B5 yielded a Kd of 13.7 nM, a koff of 0.00166 s⁻¹ and a kon of 121000 M⁻¹ s⁻¹. The Kd in [5] is 0.2 nM. Moreover, the Kd in experiment [6] was 0.8 nM.

B6: SRP1649-D06 (antibody, V domains shown)
VH: EVQLVESGGGLVQPGGSLRLSCAASGFNIRNHAIHWVRQAPGKGLEWVADIAPAGGYTDYADSVKDRFTISADTSKNTAYLQMNSLRAEDTAVYYCARGYVYRMWDSYDYWGQGTLVTVSS
VL: not shown
notes: as for B2
On to B6, for which the Kd was found to be 74.6 nM in experiment [4], 0.1 nM in experiment [5] and 1 nM in experiment [6]. In experiment [4], this molecule displayed a koff of 0.0205 s⁻¹. This molecule also came in with an on-rate (kon) in [4] of 275000 M⁻¹ s⁻¹.

B7: SRP1649-G08 (antibody, V domains shown)
VH: EVQLVESGGGLVQPGGSLRLSCAASGFNISNYVIHWVRQAPGKGLEWVAAITPDGGITEYADSVKGRFAISADTSKNTAYLQMNSLRAEDTAVYYCARGYVYRMWDSYDYWGQGTLVTVSS
VL: not shown
notes: as for B2
As to B7, in experiment [4], the affinity, expressed as Kd, was 12.8 nM; the koff amounted to 0.00243 s⁻¹; the kon is 191000 M⁻¹ s⁻¹. Also, the Kd in experiment [5] is 0.2 nM. Binding in experiment [6] was put at a Kd of 9.3 nM.

B8: SRP1649-E08 (antibody, V domains shown)
VH: EVQLVESGGSLVQPGGSLRLSCAASGFSISNYVIHWVRQAPGKGLEWVADISPDGGFTDYADSVKDRFTISADTSKNTAYLQMNSLRAEDTAVYYCARGHVYRLWDSFDYWGRGTLVTVSS
VL: not shown
notes: as for B2
Turning to B8, in [4], the affinity, expressed as Kd, was 13.5 nM; the koff came out at 0.00182 s⁻¹; the kon came out at 135000 M⁻¹ s⁻¹. This molecule displayed a Kd in experiment [5] of 0.2 nM. Moreover, the Kd in [6] is 12.4 nM.

B9: SRP1649-D11 (antibody, V domains shown)
VH: EVQLVESGGGLVQPGGSLRLSCAASGFNISGYVIHWVRQAPGKGLEWVADIIPTAGYTEYADSVKGRFTISADTSKNTAYLQMNSLRAEDTAVYYCARGYVYRMWDSFDYWGQGTLVTVSS
VL: not shown
notes: as for B2
For the molecule B9, in experiment [4], the Kd turned out to be 10.6 nM, the koff turned out to be 0.00159 s⁻¹ and the kon was 150000 M⁻¹ s⁻¹. Besides, in experiment [5], binding was put at a Kd of 0.1 nM. The Kd in [6] was 2.2 nM.

B10: SRP1649-E10 (antibody, V domains shown)
VH: EVQLVESGGGLVQPGGSLRLSCAASGFNISNNVIHWVRQAPGKGLEWVGDIMPGGGSTDYADSVKDRFTISADTSKNTAYLQMNSLRAEDTAVYYCARGYVYRMWDSYDYWGQGTLVTVSS
VL: not shown
notes: as for B2
In experiment [4], B10 came in with a Kd of 49.7 nM, a koff of 0.014 s⁻¹ and a kon of 281000 M⁻¹ s⁻¹. Binding in experiment [5] was put at a Kd of 0.2 nM. The Kd in [6] worked out at 7.4 nM.

B11: h22E11-VK2-28 × h22E11-5-IgG-HC (antibody, V domains shown)
VH: EVQLVESGGGLVQPGGSLRLSCAVSGFSLTSYGVHWVRQAPGKGLEWLVVIWSDGSTTYNSALKSRFTISKDNAKNSVYLQMNSLRAEDTAVYYCARQGGYRYDDAMDYWGQGTLVTVSS
VL: DIVLTQSPLSLPVTPGEPASISCKASQSVDYDGNSYVNWYLQKPGQSPQLLIYAASNLESGVPDRFSGSGSGTDFTLKISRVEAEDVGVYYCQQSNEDPYTFGQGTKVEIK
notes: Humanized m22E11
Take B11: the equilibrium dissociation constant (Kd) in [7] is 3.3 nM; in [9], 4.1 nM; in experiment [10], 6.7 nM; in [11], 0.8 nM. For the same molecule, the koff in [8] was 0.00101 s⁻¹.

B12: h22E11-VK2-28 × h22E11-VH4-30-4 (antibody, V domains shown)
VH: QVQLQESGPGLVKPSQTLSLTCTVSGFSLTSYGVHWIRQPPGKGLEWLVVIWSDGSTTYNPSLKSRVTISKDTSKNQVSLKLSSVTAADTAVYYCARQGGYRYDDAMDYWGQGTLVTVSS
VL: DIVLTQSPLSLPVTPGEPASISCKASQSVDYDGNSYVNWYLQKPGQSPQLLIYAASNLESGVPDRFSGSGSGTDFTLKISRVEAEDVGVYYCQQSNEDPYTFGQGTKVEIK
notes: Humanized m22E11
On to B12, for which the Kd was 9.2 nM in experiment [7], 4.3 nM in [9], 7.9 nM in [10] and 0.8 nM in experiment [11]. Moreover, in experiment [8], the koff amounted to 0.00109 s⁻¹.

B13: h22E11-VK2-28 × h22E11-VH5-51 (antibody, V domains shown)
VH: EVQLVQSGAEVKKPGESLKISCKVSGFSLTSYGVHWVRQMPGKGLEWLVVIWSDGSTTYNPSFQGQVTISKDKSISTVYLQWSSLKASDTAMYYCARQGGYRYDDAMDYWGQGTLVTVSS
VL: DIVLTQSPLSLPVTPGEPASISCKASQSVDYDGNSYVNWYLQKPGQSPQLLIYAASNLESGVPDRFSGSGSGTDFTLKISRVEAEDVGVYYCQQSNEDPYTFGQGTKVEIK
notes: Humanized m22E11
B13: the Kd is 0.7 nM in [7], 2.3 nM in experiment [9], 4.8 nM in experiment [10] and 0.6 nM in experiment [11]. Besides, in experiment [8], the koff was 0.000903 s⁻¹.

B14: 1353-G10 H1/vk1-39 IgG (antibody, V domains shown)
VH: EVQLVQSGAEVKKPGASVKVSCKASGYTFDSYGISWVRQAPGQGLEWMGWISAYNGNTNYAQKLQGRVTMTTDTSTNTAYMELRSLRSDDTAVYYCARDVDYGTGSGYWGQGTLVTVSS
VL: DIQLTQSPSSLSASVGDRVTITCSGDALPKQYAYWYQQKPGKAPKLLIYKDTERPSGVPSRFSGSSSGTKVTLTISSLQPEDFATYYCQSADNSITYRVFGGGTKVEIK
notes: IgG; also called Sample L
In [12], B14 registered a Bmax of 4940 and a Kd of 12.9 nM.

B15: h22E11-VK4-1 × h22E11-VH1-69 (antibody, V domains shown)
VH: QVQLVQSGAEVKKPGSSVKVSCKVSGFSLTSYGVHWVRQAPGQGLEWLVVIWSDGSTTYNQKFQGRVTITKDESTSTVYMELSSLRSEDTAVYYCARQGGYRYDDAMDYWGQGTLVTVSS
VL: DIVLTQSPDSLAVSLGERATINCKASQSVDYDGNSYVNWYQQKPGQPPKLLIYAASNLESGVPDRFSGSGSGTDFTLTISSLQAEDVAVYYCQQSNEDPYTFGQGTKVEIK
notes: Humanized m22E11
Take B15: the Kd in experiment [7] is 6.3 nM; in experiment [9], 2.5 nM; in experiment [10] it was 5.5 nM; in [11], 1 nM. In addition, the koff in experiment [8] came out at 0.000863 s⁻¹.

One may read the IC50 as the concentration needed to halve the response being measured. Broadly, the Kd is the constant that tells how readily two partners part at equilibrium. In general, koff refers to a measure of how fast the partners let go of each other. For orientation: kon means the second-order rate constant of association.
